Numbering of substitutions follows the chain as printed.

The target of test [1] is T1, human GPC3 recombinant protein (human, UniProt P51654 25-559).
T1 construct: also called huGPC3; Human GPC3 protein
The test can be described thus: SPR (Biacore) off-rate screen, periplasmic extract over human GPC3 on CM5; R0 45.4. On the procedure: (§1) Human GPC3 protein in acetate buffer, pH 5.0, was immobilized in a sensor chip CM5 (GE Healthcare; Cat. Nr. BR-1005-30; Lot. Nr.10245232) and successful immobilization was confirmed by using a commercially available human GPC3 antibody (R&D cat. nr. MAB2119) and the anti-GPC3-VHH-Fc (both at 10 μg/mL). Periplasmic extracts from the MP were diluted in Biacore Buffer (0.01 M HEPES pH 7.4, 0.15 M NaCl, 3 mM EDTA, 0.05% P20) and injected over 2 minutes at 30 μL/min. 10 μl of 10 mM NaOH/1M NaCl were injected between samples and off-rates were measured over 5 minutes. Off-rate ([…]) were calculated using BIACORE software 1:1 interaction Langmuir binding model.
For orientation: In SPR one partner is held on a chip, and binding of the other changes the refractive index at the surface.

Test [2] has as its target T1, human GPC3 recombinant protein. The test can be described thus: SPR (Biacore) off-rate screen, periplasmic extract over human GPC3 on CM5; R0 6.06; asterisk not explained on the sheet. On the procedure:
as §1

Test [3] shares this target. Nature of the test: SPR (Biacore) off-rate screen, periplasmic extract over human GPC3 on CM5; R0 41.0. How it is done:
as §1

The target is the same in test [4]. Nature of the test: SPR (Biacore) off-rate screen, periplasmic extract over human GPC3 on CM5; R0 56.5. On the procedure:
as §1

For test [5], the target named is T2, human GPC3 on HepG2 cells (human, UniProt P51654 25-554).
T2 construct: whole, on cells
T2 sequence (P51654 25-554 limits assumed): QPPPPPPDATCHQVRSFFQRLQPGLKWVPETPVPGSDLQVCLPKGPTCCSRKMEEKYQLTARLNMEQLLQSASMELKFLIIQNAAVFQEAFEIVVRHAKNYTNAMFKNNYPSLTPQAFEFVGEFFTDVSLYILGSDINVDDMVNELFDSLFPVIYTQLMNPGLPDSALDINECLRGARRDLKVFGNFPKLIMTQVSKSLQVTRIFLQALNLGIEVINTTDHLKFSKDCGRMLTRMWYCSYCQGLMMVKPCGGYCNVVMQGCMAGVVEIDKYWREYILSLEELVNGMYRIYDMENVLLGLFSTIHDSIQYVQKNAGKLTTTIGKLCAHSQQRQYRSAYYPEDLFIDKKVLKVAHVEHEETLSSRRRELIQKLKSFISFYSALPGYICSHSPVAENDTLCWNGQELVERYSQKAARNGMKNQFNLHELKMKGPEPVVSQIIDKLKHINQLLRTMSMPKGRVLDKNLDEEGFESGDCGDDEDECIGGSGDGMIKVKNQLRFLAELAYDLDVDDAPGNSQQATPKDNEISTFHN
Nature of the test: FACS, phage-displayed clone on HepG2, well D3; same clone on A-431 (no GPC3): 1.16%.

Test [6] deals with T2, human GPC3 on HepG2 cells. The test can be described thus: FACS, phage-displayed clone on HepG2, well D3; same clone on A-431 (no GPC3): 1102.21.
The target of test [7] is T2, human GPC3 on HepG2 cells. Nature of the test: FACS, periplasmic extract 1:5 + anti-c-myc + GAM-APC on HepG2, well D3; same on A-431: 0.36%.
Test [8] deals with T1, human GPC3 recombinant protein. The test can be described thus: SPR (Biacore), summary table; Chi2 0.59; Profile 'Good'; FIG. 18 prints 5.24E-09. How it is done:
(§2) Affinities of the 19 VHH-His tagged domains were then determined by BiaCore assay. Human GPC3 protein (Sino biological cat. nr. 10088-H08H-500) was immobilized on CM5 sensor chip (GE Healthcare) as antigen. Purified VHH-His tagged domains were diluted in BiaCore buffer (0.01 M HEPES pH 7.4, 0.15 M NaCl, 3 mM EDTA, 0.05% P20) to 500 nM and injected over 2 minutes at […] followed by a half dilution series to 7.8 nM. 10 μl of 10 mM NaOH/1M NaCl were injected between samples and then off-rate wash was 5 minutes.

In test [9] the target is T2, human GPC3 on HepG2 cells. Nature of the test: FACS, periplasmic extract 1:5 + anti-c-myc + GAM-APC on HepG2, well D3; same on A-431: 802.83. A general note: Flow cytometry measures light scatter and fluorescence of single cells or particles in a stream.
Test [10] addresses T1, human GPC3 recombinant protein. Nature of the test: SPR (Biacore) off-rate screen, periplasmic extract over human GPC3 on CM5; R0 47.2. On the procedure: as §1
The target is the same in test [11]. Nature of the test: SPR (Biacore), VHH-His over human GPC3 on CM5; fit 197.5 - 26.0 nM; Rmax 14.1 RU; Chi2 0.59. On the procedure: as §2
The target in test [12] is T2, human GPC3 on HepG2 cells. Nature of the test: FACS, phage-displayed clone on HepG2, well A2; same clone on A-431 (no GPC3): 0.72%.
Test [13] deals with T2, human GPC3 on HepG2 cells. The test can be described thus: FACS, phage-displayed clone on HepG2, well A2; same clone on A-431 (no GPC3): 1042.47.
Test [14] has as its target T2, human GPC3 on HepG2 cells. The test can be described thus: FACS, periplasmic extract 1:5 + anti-c-myc + GAM-APC on HepG2, well A2; same on A-431: 0.21%.
The target of test [15] is T2, human GPC3 on HepG2 cells. The test can be described thus: FACS, periplasmic extract 1:5 + anti-c-myc + GAM-APC on HepG2, well A2; same on A-431: 753.37.
Test [16] deals with T1, human GPC3 recombinant protein. The test can be described thus: SPR (Biacore) off-rate screen, periplasmic extract over human GPC3 on CM5; R0 71.6. On the procedure: as §1
For test [17] the target is unchanged. Nature of the test: SPR (Biacore), summary table; Chi2 0.365; Profile 'Medium'; FIG. 18 prints 3.82E-09.
Test [18] shares this target. The test can be described thus: SPR (Biacore), VHH-His over human GPC3 on CM5; fit 250 - 7.8 nM; Rmax 11.3 RU; Chi2 0.365. On the procedure:
as §2

For test [19] the target is unchanged. The test can be described thus: SPR (Biacore) off-rate screen, periplasmic extract over human GPC3 on CM5; R0 30.5. On the procedure:
as §1

Test [20] has as its target T2, human GPC3 on HepG2 cells. Nature of the test: FACS, phage-displayed clone on HepG2, well C3; same clone on A-431 (no GPC3): 1.31%.
Test [21] concerns the target T2, human GPC3 on HepG2 cells. The test can be described thus: FACS, phage-displayed clone on HepG2, well C3; same clone on A-431 (no GPC3): 1100.37.
For test [22], the target named is T2, human GPC3 on HepG2 cells. Nature of the test: FACS, periplasmic extract 1:5 + anti-c-myc + GAM-APC on HepG2, well C3; same on A-431: 0.12%.
For test [23], the target named is T1, human GPC3 recombinant protein. The test can be described thus: SPR (Biacore), summary table; Chi2 0.43; Profile 'Good'; FIG. 18 prints 6.64E-09. How it is done: as §2
Test [24] concerns the target T2, human GPC3 on HepG2 cells. Nature of the test: FACS, periplasmic extract 1:5 + anti-c-myc + GAM-APC on HepG2, well C3; same on A-431: 697.44.
Test [25] concerns the target T1, human GPC3 recombinant protein. The test can be described thus: SPR (Biacore) off-rate screen, periplasmic extract over human GPC3 on CM5; R0 31.6. How it is done:
as §1

Test [26] shares this target. The test can be described thus: SPR (Biacore), VHH-His over human GPC3 on CM5; fit 250 - 7.8 nM; Rmax 9.47 RU; Chi2 0.43. On the procedure: as §2
Test [27] shares this target. Nature of the test: SPR (Biacore) off-rate screen, periplasmic extract over human GPC3 on CM5; R0 24.6. How it is done: as §1
Test [28] has the same target. The test can be described thus: SPR (Biacore), summary table; Chi2 0.636; Profile 'Very good'.
Test [29] shares this target. The test can be described thus: SPR (Biacore) off-rate screen, periplasmic extract over human GPC3 on CM5; R0 107.0. On the procedure:
as §1

For test [30] the target is unchanged. Nature of the test: SPR (Biacore), VHH-His over human GPC3 on CM5; fit 87.8 - 17.34 nM; Rmax 38.9 RU; Chi2 0.636. On the procedure: as §2

T1 sequence (P51654 25-559 limits assumed): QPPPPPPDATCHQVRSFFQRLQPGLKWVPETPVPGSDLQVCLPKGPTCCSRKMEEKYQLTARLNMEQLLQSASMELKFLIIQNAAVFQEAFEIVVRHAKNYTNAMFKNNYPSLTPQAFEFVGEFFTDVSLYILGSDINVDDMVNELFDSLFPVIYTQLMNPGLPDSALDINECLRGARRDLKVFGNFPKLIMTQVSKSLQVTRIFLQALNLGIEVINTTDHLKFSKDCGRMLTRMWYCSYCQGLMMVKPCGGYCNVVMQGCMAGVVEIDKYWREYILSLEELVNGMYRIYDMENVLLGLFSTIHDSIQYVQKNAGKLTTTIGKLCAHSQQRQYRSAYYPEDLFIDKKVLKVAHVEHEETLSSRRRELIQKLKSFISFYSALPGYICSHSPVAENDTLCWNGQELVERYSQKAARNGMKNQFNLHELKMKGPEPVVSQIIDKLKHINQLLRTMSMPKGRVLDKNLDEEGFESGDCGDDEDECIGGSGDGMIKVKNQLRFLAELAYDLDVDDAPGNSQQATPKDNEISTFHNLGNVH

B1: VH20 (VHH)
VHH: EVQLVESGGGLVQPGGSLRLSCAASGFTFSSYAMSWVRQAPGKEPEWISSISGSGSSTYYADSLKGRFTISRDNSKNTLYLQMNSLRAEDTAVYYCSKDPRFGEPPFDYWGQGTTVTVSS
notes: also called VHH20
With B1, the dissociation rate constant (koff) (as a rule, the first-order rate constant of dissociation) in [1] stood at 0.00249 s⁻¹.

B2: VH30 (VHH)
VHH: B1 VHH with E1Q, T28I, I48V, S54G, K65E, G103F, T115L
notes: also called VHH30
In the case of B2, the off-rate (koff) in [2] was 0.00983 s⁻¹.

B3: VH34 (VHH)
VHH: B1 VHH with E1Q, Q13R, I48V, S54G, K98R, T115L
notes: also called VHH34
As to B3, the koff in [3] came to 0.00507 s⁻¹.

B4: VH22 (VHH)
VHH: B1 VHH with I48V, S54G, N84D, K98R, T115L
notes: also called VHH22
As for B4, in test [4], the off-rate (koff) came to 0.00282 s⁻¹.

B5: anti-GPC3 VHH-His tagged domain VHH5 (VHH)
VHH: B1 VHH with I48V, S54G, T58A, K98R
notes: Produced from a mammalian expression vector as a His fusion; not shown: His tag
In test [5], B5 showed a % of Binding of 74.3%. Also, the Mean FL2-A in test [6] was 57900. Moreover, the % of Binding in test [7] was 0.5%. In test [8], the dissociation constant Kd (in general, the constant that tells how readily two partners part at equilibrium) worked out at 3.68 nM. The Mean FL4-A in test [9] came out at 812. Besides, the off-rate (koff) in [10] is 0.00366 s⁻¹. Further, in [11], the Ka came to 1.91e+08 M⁻¹; the dissociation constant Kd turned out to be 5.24 nM; the off-rate constant (koff) was determined as 0.00253 s⁻¹; the kon – broadly, a measure of how fast the partners come together – was found to be 484000 M⁻¹ s⁻¹.

B6: anti-GPC3 VHH-His tagged domain VHH13 (VHH)
VHH: B1 VHH with I48V, S54G, S56G, S85R, S97A, K98R, R101M, P105R, T115L
notes: as for B5
With B6, the % of Binding in [12] stood at 61.4%. Moreover, the Mean FL2-A in [13] was determined as 26600. In addition, in [14], the % of Binding came out at 0.3%. For the same molecule, the Mean FL4-A in test [15] stood at 752. In addition, the koff in test [16] turned out to be 0.00607 s⁻¹. In addition, in [17], the dissociation constant (Kd) worked out at 3.57 nM. Further, in test [18], the Ka was found to be 2.62e+08 M⁻¹, the Kd was 3.82 nM, the koff stood at 0.00538 s⁻¹ and the kon amounted to 1.41e+06 M⁻¹ s⁻¹.

B7: VH25 (VHH)
VHH: B1 VHH with P45S, I48V, T115L
notes: also called VHH25
Consider B7, for which, in test [19], the off-rate constant (koff) worked out at 0.00378 s⁻¹.

B8: anti-GPC3 VHH-His tagged domain VHH6 (VHH)
VHH: B1 VHH with E1Q, T28I, I48V, S54G, K65E
notes: as for B5
B8 registered a % of Binding in test [20] of 68.7%. Further, in [21], the Mean FL2-A turned out to be 43500. In test [22], the % of Binding worked out at 0.64%. For the same molecule, the Kd in test [23] was found to be 4.34 nM. Further, the Mean FL4-A in [24] is 915. Moreover, the koff in [25] was determined as 0.00221 s⁻¹. Also, in test [26], the Ka was 1.51e+08 M⁻¹, the Kd amounted to 6.64 nM, the dissociation rate constant (koff) stood at 0.00197 s⁻¹ and the association rate constant (kon) came to 296000 M⁻¹ s⁻¹.

B9: VH24 (VHH)
VHH: B1 VHH with I48V, S54G, S56T, K65E, T115L
notes: also called VHH24
For the molecule B9, in [27], the off-rate (koff) came out at 0.00367 s⁻¹.

B10: anti-GPC3 VHH-His tagged domain VHH2 (VHH)
VHH: QVQLVESGGGLVQPGGSLRLSCAASGFTFSNYLMHWVRQAPGKGLEWLSNINSDGSSTYYADSVKGRFTISRDNSKNTLYLQMNSLRAEDTAVYYCTVGAFDYWGQVTTGTVSS
notes: as for B5
As for B10, in test [28], the Kd came to 2.73 nM. Also, the off-rate (koff) in test [29] came out at 0.00184 s⁻¹. In test [30], the Ka amounted to 3.66e+08 M⁻¹, the Kd turned out to be 2.73 nM, the off-rate (koff) turned out to be 0.000967 s⁻¹ and the kon worked out at 354000 M⁻¹ s⁻¹.

Values taken from patent US20260191905A1 (MODERNATX, published 2026).
